In the experiment the target is Aβ_(1-42). The experiment is described as follows: thioflavin T fluorescence aggregation kinetics.

Consider Aβ_(1-42) (peptide), for which the k+k2 (product of the rate constants of elongation and secondary nucleation) was 1e+11 M^−3s^−2.

The values are drawn from paper PMC8254419.
